The values below come from PMC3859580, “The PS1 Hairpin of Mcm3 Is Essential for Viability and for DNA Unwinding In Vitro” (PLoS ONE, 2013).

B1: Mcm3 (wild type), subunit of Saccharomyces cerevisiae Mcm2-7 (natural protein, S. cerevisiae, UniProt P24279 1-971, looked up)
chain: MEGSTGFDGDATTFFAPDAVFGDRVRRFQEFLDTFTSYRDSVRSIQVYNSNNAANYNDDQDDADERDLLGDDDGDDLEKEKKAASSTSLNILPHRIIISLDDLREFDRSFWSGILVEPAYFIPPAEKALTDLADSMDDVPHPNASAVSSRHPWKLSFKGSFGAHALSPRTLTAQHLNKLVSVEGIVTKTSLVRPKLIRSVHYAAKTGRFHYRDYTDATTTLTTRIPTPAIYPTEDTEGNKLTTEYGYSTFIDHQRITVQEMPEMAPAGQLPRSIDVILDDDLVDKTKPGDRVNVVGVFKSLGAGGMNQSNSNTLIGFKTLILGNTVYPLHARSTGVAARQMLTDFDIRNINKLSKKKDIFDILSQSLAPSIYGHDHIKKAILLMLMGGVEKNLENGSHLRGDINILMVGDPSTAKSQLLRFVLNTASLAIATTGRGSSGVGLTAAVTTDRETGERRLEAGAMVLADRGVVCIDEFDKMTDVDRVAIHEVMEQQTVTIAKAGIHTTLNARCSVIAAANPVFGQYDVNRDPHQNIALPDSLLSRFDLLFVVTDDINEIRDRSISEHVLRTHRYLPPGYLEGEPVRERLNLSLAVGEDADINPEEHSNSGAGVENEGEDDEDHVFEKFNPLLQAGAKLAKNKGNYNGTEIPKLVTIPFLRKYVQYAKERVIPQLTQEAINVIVKNYTDLRNDDNTKKSPITARTLETLIRLATAHAKVRLSKTVNKVDAKVAANLLRFALLGEDIGNDIDEEESEYEEALSKRSPQKSPKKRQRVRQPASNSGSPIKSTPRRSTASSVNATPSSARRILRFQDDEQNAGEDDNDIMSPLPADEEAELQRRLQLGLRVSPRRREHLHAPEEGSSGPLTEVGTPRLPNVSSAGQDDEQQQSVISFDNVEPGTISTGRLSLISGIIARLMQTEIFEEESYPVASLFERINEELPEEEKFSAQEYLAGLKIMSDRNNLMVADDKVWRV
notes: source: E. coli, purified, reconstituted into Mcm2-7 as described [27]
B5: Mcm3_(K499A), Mcm3 with the PS1 hairpin mutation (natural protein, S. cerevisiae, UniProt P24279 1-971, looked up)
chain: MEGSTGFDGDATTFFAPDAVFGDRVRRFQEFLDTFTSYRDSVRSIQVYNSNNAANYNDDQDDADERDLLGDDDGDDLEKEKKAASSTSLNILPHRIIISLDDLREFDRSFWSGILVEPAYFIPPAEKALTDLADSMDDVPHPNASAVSSRHPWKLSFKGSFGAHALSPRTLTAQHLNKLVSVEGIVTKTSLVRPKLIRSVHYAAKTGRFHYRDYTDATTTLTTRIPTPAIYPTEDTEGNKLTTEYGYSTFIDHQRITVQEMPEMAPAGQLPRSIDVILDDDLVDKTKPGDRVNVVGVFKSLGAGGMNQSNSNTLIGFKTLILGNTVYPLHARSTGVAARQMLTDFDIRNINKLSKKKDIFDILSQSLAPSIYGHDHIKKAILLMLMGGVEKNLENGSHLRGDINILMVGDPSTAKSQLLRFVLNTASLAIATTGRGSSGVGLTAAVTTDRETGERRLEAGAMVLADRGVVCIDEFDKMTDVDRVAIHEVMEQQTVTIAAAGIHTTLNARCSVIAAANPVFGQYDVNRDPHQNIALPDSLLSRFDLLFVVTDDINEIRDRSISEHVLRTHRYLPPGYLEGEPVRERLNLSLAVGEDADINPEEHSNSGAGVENEGEDDEDHVFEKFNPLLQAGAKLAKNKGNYNGTEIPKLVTIPFLRKYVQYAKERVIPQLTQEAINVIVKNYTDLRNDDNTKKSPITARTLETLIRLATAHAKVRLSKTVNKVDAKVAANLLRFALLGEDIGNDIDEEESEYEEALSKRSPQKSPKKRQRVRQPASNSGSPIKSTPRRSTASSVNATPSSARRILRFQDDEQNAGEDDNDIMSPLPADEEAELQRRLQLGLRVSPRRREHLHAPEEGSSGPLTEVGTPRLPNVSSAGQDDEQQQSVISFDNVEPGTISTGRLSLISGIIARLMQTEIFEEESYPVASLFERINEELPEEEKFSAQEYLAGLKIMSDRNNLMVADDKVWRV
notes: Mcm3, S. cerevisiae, K499A; NdeI-SacI fragment of mcm3_(K499A)-YCplac111 in pET24a (pMD466); also called the Mcm3 subunit of Mcm2-7_(3K499A); source: E. coli BL21 DE3 Codon+, purified (ammonium sulfate, Q Sepharose, ssDNA-Sepharose, MonoQ, MonoS)

Experiment in all cases: SEC; individual purified Mcm subunits mixed in equal molar ratios to reconstitute the hexameric complex; elution from a gel filtration column, fractions analysed by SDS-PAGE
Holding throughout (conditions): both partners purified
On the technique in general: SEC sorts molecules by how far they enter the pores of the column.

In test [1] the target is T1, Mcm6, subunit of Saccharomyces cerevisiae Mcm2-7 (S. cerevisiae, UniProt P53091 1-1017).
T1 construct: Mcm6, S. cerevisiae, recombinant subunit; source: E. coli, purified, reconstituted into Mcm2-7 as described [27]
T1 sequence (P53091 whole entry): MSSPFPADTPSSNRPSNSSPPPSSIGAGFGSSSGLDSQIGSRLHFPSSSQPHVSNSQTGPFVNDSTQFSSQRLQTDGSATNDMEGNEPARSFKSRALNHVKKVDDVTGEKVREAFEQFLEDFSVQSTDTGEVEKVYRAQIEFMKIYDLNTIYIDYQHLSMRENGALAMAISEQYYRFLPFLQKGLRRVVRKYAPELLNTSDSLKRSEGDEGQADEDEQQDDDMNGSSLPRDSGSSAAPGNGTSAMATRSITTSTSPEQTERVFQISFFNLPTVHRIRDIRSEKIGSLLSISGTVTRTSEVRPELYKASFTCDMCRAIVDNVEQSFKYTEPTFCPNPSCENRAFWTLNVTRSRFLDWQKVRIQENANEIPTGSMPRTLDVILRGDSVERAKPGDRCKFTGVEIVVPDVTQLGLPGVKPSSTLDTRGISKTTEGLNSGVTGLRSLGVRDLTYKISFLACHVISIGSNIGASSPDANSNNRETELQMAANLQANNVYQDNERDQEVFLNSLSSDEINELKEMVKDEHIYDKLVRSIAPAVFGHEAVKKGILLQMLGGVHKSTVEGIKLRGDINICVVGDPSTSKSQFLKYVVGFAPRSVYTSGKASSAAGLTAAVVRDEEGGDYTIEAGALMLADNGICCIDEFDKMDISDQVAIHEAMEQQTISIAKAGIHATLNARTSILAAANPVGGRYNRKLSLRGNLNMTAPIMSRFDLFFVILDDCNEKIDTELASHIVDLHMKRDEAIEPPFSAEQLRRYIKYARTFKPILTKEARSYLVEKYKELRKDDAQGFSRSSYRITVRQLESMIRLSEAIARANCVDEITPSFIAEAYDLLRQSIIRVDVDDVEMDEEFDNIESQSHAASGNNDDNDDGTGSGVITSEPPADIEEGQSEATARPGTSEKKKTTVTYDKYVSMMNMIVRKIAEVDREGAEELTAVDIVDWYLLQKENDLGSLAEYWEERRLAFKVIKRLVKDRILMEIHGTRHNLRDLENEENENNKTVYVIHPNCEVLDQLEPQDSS

In test [2] the target is B1.
Test [3] addresses B5.

For the molecule B1, in test [1], the binding result is listed as “binds”.

B2: Mcm4, subunit of Saccharomyces cerevisiae Mcm2-7 (natural protein, S. cerevisiae, UniProt P30665 1-933, looked up)
chain: MSQQSSSPTKEDNNSSSPVVPNPDSVPPQLSSPALFYSSSSSQGDIYGRNNSQNLSQGEGNIRAAIGSSPLNFPSSSQRQNSDVFQSQGRQGRIRSSASASGRSRYHSDLRSDRALPTSSSSLGRNGQNRVHMRRNDIHTSDLSSPRRIVDFDTRSGVNTLDTSSSSAPPSEASEPLRIIWGTNVSIQECTTNFRNFLMSFKYKFRKILDEREEFINNTTDEELYYIKQLNEMRELGTSNLNLDARNLLAYKQTEDLYHQLLNYPQEVISIMDQTIKDCMVSLIVDNNLDYDLDEIETKFYKVRPYNVGSCKGMRELNPNDIDKLINLKGLVLRSTPVIPDMKVAFFKCNVCDHTMAVEIDRGVIQEPARCERIDCNEPNSMSLIHNRCSFADKQVIKLQETPDFVPDGQTPHSISLCVYDELVDSCRAGDRIEVTGTFRSIPIRANSRQRVLKSLYKTYVDVVHVKKVSDKRLDVDTSTIEQELMQNKVDHNEVEEVRQITDQDLAKIREVAAREDLYSLLARSIAPSIYELEDVKKGILLQLFGGTNKTFTKGGRYRGDINILLCGDPSTSKSQILQYVHKITPRGVYTSGKGSSAVGLTAYITRDVDTKQLVLESGALVLSDGGVCCIDEFDKMSDSTRSVLHEVMEQQTISIAKAGIITTLNARSSILASANPIGSRYNPNLPVTENIDLPPPLLSRFDLVYLVLDKVDEKNDRELAKHLTNLYLEDKPEHISQDDVLPVEFLTMYISYAKEHIHPIITEAAKTELVRAYVGMRKMGDDSRSDEKRITATTRQLESMIRLAEAHAKMKLKNVVELEDVQEAVRLIRSAIKDYATDPKTGKIDMNLVQTGKSVIQRKLQEDLSREIMNVLKDQASDSMSFNELIKQINEHSQDRVESSDIQEALSRLQQEDKVIVLGEGVRRSVRLNNRV
notes: Mcm4, S. cerevisiae, recombinant subunit; source: E. coli, purified, reconstituted into Mcm2-7 as described [27]
On to B2, for which the binding result in test [2] and in test [3] was “binds” throughout.

B3: Mcm7, subunit of Saccharomyces cerevisiae Mcm2-7 (natural protein, S. cerevisiae, UniProt P38132 1-845, looked up)
chain: MSAALPSIQLPVDYNNLFNEITDFLVTFKQDTLSSDATRNENEDENLDAENIEQHLLEKGPKYMAMLQKVANRELNSVIIDLDDILQYQNEKFLQGTQADDLVSAIQQNANHFTELFCRAIDNNMPLPTKEIDYKDDVLDVILNQRRLRNERMLSDRTNEIRSENLMDTTMDPPSSMNDALREVVEDETELFPPNLTRRYFLYFKPLSQNCARRYRKKAISSKPLSVRQIKGDFLGQLITVRGIITRVSDVKPAVEVIAYTCDQCGYEVFQEVNSRTFTPLSECTSEECSQNQTKGQLFMSTRASKFSAFQECKIQELSQQVPVGHIPRSLNIHVNGTLVRSLSPGDIVDVTGIFLPAPYTGFKALKAGLLTETYLEAQFVRQHKKKFASFSLTSDVEERVMELITSGDVYNRLAKSIAPEIYGNLDVKKALLLLLVGGVDKRVGDGMKIRGDINVCLMGDPGVAKSQLLKAICKISPRGVYTTGKGSSGVGLTAAVMKDPVTDEMILEGGALVLADNGICCIDEFDKMDESDRTAIHEVMEQQTISISKAGINTTLNARTSILAAANPLYGRYNPRLSPLDNINLPAALLSRFDILFLMLDIPSRDDDEKLAEHVTYVHMHNKQPDLDFTPVEPSKMREYIAYAKTKRPVMSEAVNDYVVQAYIRLRQDSKREMDSKFSFGQATPRTLLGIIRLSQALAKLRLADMVDIDDVEEALRLVRVSKESLYQETNKSKEDESPTTKIFTIIKKMLQETGKNTLSYENIVKTVRLRGFTMLQLSNCIQEYSYLNVWHLINEGNTLKFVDDGTMDTDQEDSLVSTPKLAPQTTASANVSAQDSDIDLQDA
notes: Mcm7, S. cerevisiae, recombinant subunit; source: E. coli, purified, reconstituted into Mcm2-7 as described [27]
Turning to B3, the binding result in test [2] and in test [3] was “binds” in each case.

B4: Mcm2, subunit of Saccharomyces cerevisiae Mcm2-7 (natural protein, S. cerevisiae, UniProt P29469 1-868, looked up)
chain: MSDNRRRRREEDDSDSENELPPSSPQQHFRGGMNPVSSPIGSPDMINPEGDDNEVDDVPDIDEVEEQMNEVDLMDDNMYEDYAADHNRDRYDPDQVDDREQQELSLSERRRIDAQLNERDRLLRNVAYIDDEDEEQEGAAQLDEMGLPVQRRRRRRQYEDLENSDDDLLSDMDIDPLREELTLESLSNVKANSYSEWITQPNVSRTIARELKSFLLEYTDETGRSVYGARIRTLGEMNSESLEVNYRHLAESKAILALFLAKCPEEMLKIFDLVAMEATELHYPDYARIHSEIHVRISDFPTIYSLRELRESNLSSLVRVTGVVTRRTGVFPQLKYVKFNCLKCGSILGPFFQDSNEEIRISFCTNCKSKGPFRVNGEKTVYRNYQRVTLQEAPGTVPPGRLPRHREVILLADLVDVSKPGEEVEVTGIYKNNYDGNLNAKNGFPVFATIIEANSIKRREGNTANEGEEGLDVFSWTEEEEREFRKISRDRGIIDKIISSMAPSIYGHRDIKTAVACSLFGGVPKNVNGKHSIRGDINVLLLGDPGTAKSQILKYVEKTAHRAVFATGQGASAVGLTASVRKDPITKEWTLEGGALVLADKGVCLIDEFDKMNDQDRTSIHEAMEQQSISISKAGIVTTLQARCSIIAAANPNGGRYNSTLPLAQNVSLTEPILSRFDILCVVRDLVDEEADERLATFVVDSHVRSHPENDEDREGEELKNNGESAIEQGEDEINEQLNARQRRLQRQRKKEEEISPIPQELLMKYIHYARTKIYPKLHQMDMDKVSRVYADLRRESISTGSFPITVRHLESILRIAESFAKMRLSEFVSSYDLDRAIKVVVDSFVDAQKVSVRRQLRRSFAIYTLGH
notes: Mcm2, S. cerevisiae, recombinant subunit; source: E. coli, purified, reconstituted into Mcm2-7 as described [27]
For the molecule B4, the binding result in test [2] and in test [3] was “binds” throughout.

On to B5, for which the binding result in test [1] is listed as “binds”.
